We go through one molecule from patent publication US20200057048A1 (published 2020).

The assay has as its target T1, human islet-specific glucose-6-phosphatase catalytic subunit-related protein (IGRP) peptide on HLA-DRA*01:01 … (human).
T1 peptide: QHLQKDYRAYYTF
Kind of assay: multimer staining.

Procedure: Three million transduced and sorted GP+envAm12 were plated per well of a 6 well plate in a final volume of 3 ml. Next day 100,000 JURMA-hCD4 were co-cultured with the pre-plated transduced GP+envAm12 in a final volume of 3 ml supplemented with 8 ug/ml of polybrene. This co-culture was maintained during two weeks changing the media every 2 or 3 days. After co-culture, JURMA-hCD4 cells were harvested analyzed by flow cytometry and sorted for high transgene expression. Cells were then stained with PE labeled heterodimers.

B1: IGRP13-25 TCR (TCR, V domains shown)
Valpha: DQQVKQNSPSLSVQEGRISILNCDYTNSMFDYFLWYKKYPAEGPTFLISISSIKDKNEDGRFTVFLNKSAKHLSLHIVPSQPGDSAVYFCAATNSGGSNYKLTFGKGTLLTVNP
Vbeta: DGGITQSPKYLFRKEGQNVTLSCEQNLNHDAMYWYRQDPGQGLRLIYYSQIVNDFQKGDIAEGYSVSREKKESFPLTVTSAQKNPTAFYLCASGGRVYQPQHFGDGTRLSIL
As to B1, the binding result is on record as “recognises”.
